{"source": "patent US20080161234A1", "about": "“Composition Comprising Lactic Acid and Lactoferrin” (priority 2004, published 2008)", "key": {"[1]": {"system": "C. albicans (ATCC 64549)", "assay": "Microbicidal microplate assay (viable counts), C. albicans", "type": "cell-based", "method": "The bacterial strains S. aureus 1800 (CCUG 1800), E. coli 06, and the yeast C. albicans (ATCC 64549) have been used in the microplate assay. All microorganisms were cultured in brain heart infusion medium (BHI) on a shaker over night at 37° C. A volume of the culture was transferred to a new tube with BHI and incubated for two more h on the shaker. The bacteria were harvested in the log phase, washed once and thereafter suspended in the broth used for the microplate assay. The suspension was adjusted spectrophotometrically and diluted to a concentration of approximately 4×10^6 cells per ml at 650 nm. Washed cells were suspended in 0.2% BP (pH 7.0) or BHI medium diluted 1/10 (0.34%, pH 6.7-6.9) (Difco, USA). The concentration of bacterial or fungal cells was spectrophotometrically adjusted. LF or peptide, serially diluted in BHIdil or BP by twofold steps (unless otherwise stated), were added in triplicate to the wells of a microtiterplate (200 ul per well). The bacterial or yeast cell solutions were added in 10 ul volumes to give a final concentration of approximately 2×10^5 cells per ml. The concentration of the stock solution was always checked by viable counts. The microplate was incubated at 37° C. in a humid chamber for 2 h unless otherwise stated. Five ul were taken from each well and added as a drop onto a blood agar plate and incubated over night at 37° C. In some experiments more thorough viable counts were performed and the killing was expressed as remaining colony forming units in relation to the inoculum. The lower limit for detection of microorganisms was 200 CFU/ml. The antimicrobial activity of human LF was analysed by the microbicidal assay described above. Different microbes such as C. albicans, E. coli and S. aureus were analysed with respect to their survival in lactate (not containing the inert gel base, which makes the gel unsuitable for the microbicidal assay) containing LF. […] LF was incubated together with various concentrations of lactate diluted in 0.2% bactopeptone and C. albicans for 2 h. Thereafter each solution was analysed for viable counts."}, "[2]": {"system": "G. vaginalis (Gv 14)", "assay": "Growth inhibition of G. vaginalis by LF, spectrophotometric, 20 h anaerobic", "type": "cell-based", "settings": "LF in various concentrations, no lactate, 0.34% BHI", "method": "The bacteria were incubated in 0.34% BHI under anaerobic conditions for 20 hours.\nG. vaginalis and P. bivia were cultured on chocolate-GL-plates for 48 h in anaerobic milieu. The bacteria were harvested and suspended in BHI for further incubation (4 hours at 37° C.). The bacteria were washed twice in Bactopeptone (BP, 0.2%). The concentration was adjusted spectrophotometrically and diluted to 1×10^7 bacteria per ml.\nThe procedure for the microbicidal assay with regard to G. vaginalis and P. bivia was as described above except that the microplate was incubated under anaerobic conditions (2 h). Thereafter droplets of the solutions were analyzed for viable bacteria on blood agar plates after 48 h of anaerobic incubation at 37° C.\nThe microbicidal assay was modified in order to obtain survival conditions for G. vaginalis and P. bivia. Instead of 0.2% BP 0.34% BHI was used. The bacterial strains were analyzed with only LF added in various concentrations to the wells (no lactate present). The plate was incubated for 20 hours."}}}
{"molecule": "LF: LF from human milk purchased from Sigma; single chain iron-binding glycoprotein (protein, UniProt P02788 20-710, looked up) Lactotransferrin: GRRRSVQWCAVSQPEATKCFQWQRNMRKVRGPPVSCIKRDSPIQCIQAIAENRADAVTLDGGFIYEAGLAPYKLRPVAAEVYGTERQPRTHYYAVAVVKKGGSFQLNELQGLKSCHTGLRRTAGWNVPIGTLRPFLNWTGPPEPIEAAVARFFSASCVPGADKGQFPNLCRLCAGTGENKCAFSSQEPYFSYSGAFKCLRDGAGDVAFIRESTVFEDLSDEAERDEYELLCPDNTRKPVDKFKDCHLARVPSHAVVARSVNGKEDAIWNLLRQAQEKFGKDKSPKFQLFGSPSGQKDLLFKDSAIGFSRVPPRIDSGLYLGSGYFTAIQNLRKSEEEVAARRARVVWCAVGEQELRKCNQWSGLSEGSVTCSSASTTEDCIALVLKGEADAMSLDGGYVYTAGKCGLVPVLAENYKSQQSSDPDPNCVDRPVEGYLAVAVVRRSDTSLTWNSVKGKKSCHTAVDRTAGWNIPMGLLFNQTGSCKFDEYFSQSCAPGSDPRSNLCALCIGDEQGENKCVPNSNERYYGYTGAFRCLAENAGDVAFVKDVTVLQNTDGNNNEAWAKDLKLADFALLCLDGKRKPVTEARSCHLAMAPNHAVVSRMDKVERLKQVLLHQQAKFGRNGSDCPDKFCLFQSETKNLLFNDNTECLARLHGKTTYEKYLGPQYVAGITNLKKCSTSPLLEACEFLRK", "values": [{"measurement": "inoculate killed", "setting": "[1]; LF 2 mg/ml in lactate 1%, 2 h", "value": 92, "unit": "%"}, {"measurement": "inoculate killed", "setting": "[1]; LF 5 mg/ml in lactate 1%, 2 h", "value": 98.2, "unit": "%"}, {"measurement": "reduction of yeast cells", "setting": "[1]; LF in lactate concentrations 0.2%, 0.04% and 0%, 0.2% bactopeptone, 2 h", "value": 99.9, "unit": "%"}, {"measurement": "effect of LF on antimicrobial effect of lactate against C. albicans", "setting": "[1]; lactate diluted fivefold or more (≦1%), all LF concentrations except 0.5 mg at 1% lactate", "value": "enhanced the antimicrobial effect of lactate"}, {"measurement": "microbicidal activity against C. albicans, LF compared with rHLF", "setting": "[1]; without lactate, 0.25 and 0.125 mg/ml, 2 h of incubation", "value": "somewhat more active"}, {"measurement": "growth inhibition of G. vaginalis", "setting": "[2]", "value": "Growth inhibition"}]}
